Test results published in patent publication US20200223925A1 (Hoffmann-La Roche, published 2020).
Each block holds one binder with its values, some of them ahead of it.

Legend:
[1] = molecular target: T1, human Fibroblast Activation Protein (FAP) (human, UniProt Q12884 1-760); test: flow cytometry, 3T3-huFAP cells, PE anti-human IgG secondary, MFI
T1 construct: on 3T3-huFAP or MV3 cells in the functional assays; also called huFAP; 3T3-huFAP cells (clone 19)
Experimental: (§1) Binding was assessed by flow cytometry with a FACS Fortessa (BD, Software FACS Diva). Binding curves were obtained using GraphPadPrism6.

human CD28 = molecular target: T2, human CD28 (human, UniProt P10747 19-220); test: flow cytometry, CHO cells stably overexpressing human CD28, monovalent one-armed IgG from supernatant, PE anti-human IgG secondary, MFI
T2 construct: on primary human T cells in the functional assays; also called huCD28; CHO cells expressing human CD28
Experimental: as §1

binding result [1]: binds
B1: Molecule E: FAP(4B9)-CD28(SA) 1+2 format (bispecific antibody, human IgG1, kappa, L234A L235A)
light: not shown
heavy 1: not shown
heavy 2: QVQLVQSGAEVKKPGASVKVSCKASGYTFTSYYIHWVRQAPGQGLEWIGCIYPGNVNTNYNEKFKDRATLTVDTSISTAYMELSRLRSDDTAVYFCTRSHYGLDWNFDVWGQGTTVTVSSASTKGPSVFPLAPSSKSTSGGTAALGCLVKDYFPEPVTVSWNSGALTSGVHTFPAVLQSSGLYSLSSVVTVPSSSLGTQTYICNVNHKPSNTKVDKKVEPKSCDKTHTCPPCPAPEAAGGPSVFLFPPKPKDTLMISRTPEVTCVVVDVSHEDPEVKFNWYVDGVEVHNAKTKPREEQYNSTYRVVSVLTVLHQDWLNGKEYKCKVSNKALGAPIEKTISKAKGQPREPQVCTLPPSRDELTKNQVSLSCAVKGFYPSDIAVEWESNGQPENNYKTTPPVLDSDGSFFLVSKLTVDKSRWQQGNVFSCSVMHEALHNHYTQKSLSLSPGGGGGSGGGGSGGGGSGGGGSEIVLTQSPGTLSLSPGERATLSCRASQSVTSSYLAWYQQKPGQAPRLLINVGSRRATGIPDRFSGSGSGTDFTLTISRLEPEDFAVYYCQQGIMLPPTFGQGTKVEIK
notes: bivalent anti-CD28(SA), monovalent anti-FAP (VH on knob chain, VL on hole chain), huIgG1 PG-LALA; also called P1AD9011; FAP-CD28(SA) 1+2

binding result (human CD28): binds
B2: CD28(SA)_variant_28 (antibody, human IgG1, kappa, L234A L235A)
heavy: not shown
light: not shown
chain: DKTHTCPPCPAPEAAGGPSVFLFPPKPKDTLMISRTPEVTCVVVDVSHEDPEVKFNWYVDGVEVHNAKTKPREEQYNSTYRVVSVLTVLHQDWLNGKEYKCKVSNKALGAPIEKTISKAKGQPREPQVCTLPPSRDELTKNQVSLSCAVKGFYPSDIAVEWESNGQPENNYKTTPPVLDSDGSFFLVSKLTVDKSRWQQGNVFSCSVMHEALHNRFTQKSLSLSP
notes: monovalent one-armed IgG-like construct; from supernatant; also called P1AE3084
